B1: Far upstream element-binding protein 3, residues 75 to 150; numbered along this chain, Q96I24 (parent)
chain: RTVITEEFKVPDKMVGFIIGRGGEQISRIQAESGCKIQIASESSGIPERPCVLTGTPESIEQAKRLLGQIVDRCRN

± gives the uncertainty stated by the source.

The series covers variants of B1. As to the kind of experiment: abundance fitness (aPCA) (normalised: wild type 0, dead -1); higher = more abundant; growth selection in yeast, the domain comes from the species named. To be noted: Homo sapiens.
On to RTVITEEFKVPDKMVGFIIGRGGEQISRAQAESGCKIQIASESSGIPERPCVLTGTPESIEQAKRLLGQIVDRCRN, for which the abundance fitness is -0.213 ± 0.032.
For RTVITEEFKVPDKMVGFIIGRGGEQISRDQAESGCKIQIASESSGIPERPCVLTGTPESIEQAKRLLGQIVDRCRN the value was -0.432 ± 0.052; for RTVITEEFKVPDKMVGFIIGRGGEQISREQAESGCKIQIASESSGIPERPCVLTGTPESIEQAKRLLGQIVDRCRN, -0.621 ± 0.039.
As for RTVITEEFKVPDKMVGFIIGRGGEQISRCQAESGCKIQIASESSGIPERPCVLTGTPESIEQAKRLLGQIVDRCRN, the abundance fitness was -0.191 ± 0.038.
Then RTVITEEFKVPDKMVGFIIGRGGEQIERIQAESGCKIQIASESSGIPERPCVLTGTPESIEQAKRLLGQIVDRCRN, with -0.014 ± 0.043; and RTVITEEFKVPDKMVGFIIGRGGEQIPRIQAESGCKIQIASESSGIPERPCVLTGTPESIEQAKRLLGQIVDRCRN, with -0.232 ± 0.05; and RTVITEEFKVPDKMVGFIIGRGGEQITRIQAESGCKIQIASESSGIPERPCVLTGTPESIEQAKRLLGQIVDRCRN, with 0.026 ± 0.041.
For RTVITEEFKVPDKMVGFIIGRGGEQINRIQAESGCKIQIASESSGIPERPCVLTGTPESIEQAKRLLGQIVDRCRN the value was 0.023 ± 0.073; for RTVITEEFKVPDKMVGFIIGRGGEQIFRIQAESGCKIQIASESSGIPERPCVLTGTPESIEQAKRLLGQIVDRCRN, -0.153 ± 0.067.
For RTVITEEFKVPDKMVGFIIGRGGEQIDRIQAESGCKIQIASESSGIPERPCVLTGTPESIEQAKRLLGQIVDRCRN the value was -0.084 ± 0.075.
Consider RTVITEEFKVPDKMVGFIIGRGGEQICRIQAESGCKIQIASESSGIPERPCVLTGTPESIEQAKRLLGQIVDRCRN, for which the abundance fitness is -0.147 ± 0.054.
For RTVITEEFKVPDKMVGFIIGRGGEQILRIQAESGCKIQIASESSGIPERPCVLTGTPESIEQAKRLLGQIVDRCRN the value was -0.075 ± 0.037.
For RTVITEEFKVPDKMVGFIIGRGGEQIARIQAESGCKIQIASESSGIPERPCVLTGTPESIEQAKRLLGQIVDRCRN the value was -0.033 ± 0.034; for RTVITEEFKVPDKMVGFIIGRGGEQIWRIQAESGCKIQIASESSGIPERPCVLTGTPESIEQAKRLLGQIVDRCRN, -0.167 ± 0.035.
With RTVITEEFKVPDKMVGFIIGRGGEQIYRIQAESGCKIQIASESSGIPERPCVLTGTPESIEQAKRLLGQIVDRCRN, the abundance fitness was -0.241 ± 0.095.
In the case of RTVITEEFKVPDKMVGFIIGRGGEQIGRIQAESGCKIQIASESSGIPERPCVLTGTPESIEQAKRLLGQIVDRCRN, the abundance fitness amounted to 0.004 ± 0.031.
On to RTVITEEFKVPDKMVGFIIGRGGEQIHRIQAESGCKIQIASESSGIPERPCVLTGTPESIEQAKRLLGQIVDRCRN, for which the abundance fitness was -0.117 ± 0.066.
Then RTVITEEFKVPDKMVGFIIGRGGEQIVRIQAESGCKIQIASESSGIPERPCVLTGTPESIEQAKRLLGQIVDRCRN, with -0.092 ± 0.033; and RTVITEEFKVPDKMVGFIIGRGGEQIQRIQAESGCKIQIASESSGIPERPCVLTGTPESIEQAKRLLGQIVDRCRN, with -0.066 ± 0.05.
Then RTVITEEFKVPDKMVGFIIGRGGEQIIRIQAESGCKIQIASESSGIPERPCVLTGTPESIEQAKRLLGQIVDRCRN, with -0.187 ± 0.074; and RTVITEEFKVPDKMVGFIIGRGGEQIRRIQAESGCKIQIASESSGIPERPCVLTGTPESIEQAKRLLGQIVDRCRN, with 0.068 ± 0.029.
Turning to RTVITEEFKVPDKMVGFIIGRGGEQVSRIQAESGCKIQIASESSGIPERPCVLTGTPESIEQAKRLLGQIVDRCRN, the abundance fitness was -0.024 ± 0.031.
Then RTVITEEFKVPDKMVGFIIGRGGEQPSRIQAESGCKIQIASESSGIPERPCVLTGTPESIEQAKRLLGQIVDRCRN, with -0.628 ± 0.045.
RTVITEEFKVPDKMVGFIIGRGGEQFSRIQAESGCKIQIASESSGIPERPCVLTGTPESIEQAKRLLGQIVDRCRN: the abundance fitness is -0.173 ± 0.06.
Regarding RTVITEEFKVPDKMVGFIIGRGGEQWSRIQAESGCKIQIASESSGIPERPCVLTGTPESIEQAKRLLGQIVDRCRN, the abundance fitness was -0.2 ± 0.032.
Then RTVITEEFKVPDKMVGFIIGRGGEQMSRIQAESGCKIQIASESSGIPERPCVLTGTPESIEQAKRLLGQIVDRCRN, with -0.052 ± 0.042; and RTVITEEFKVPDKMVGFIIGRGGEQTSRIQAESGCKIQIASESSGIPERPCVLTGTPESIEQAKRLLGQIVDRCRN, with -0.262 ± 0.041.
Then RTVITEEFKVPDKMVGFIIGRGGEQHSRIQAESGCKIQIASESSGIPERPCVLTGTPESIEQAKRLLGQIVDRCRN, with -0.144 ± 0.052; and RTVITEEFKVPDKMVGFIIGRGGEQCSRIQAESGCKIQIASESSGIPERPCVLTGTPESIEQAKRLLGQIVDRCRN, with -0.21 ± 0.047.
On to RTVITEEFKVPDKMVGFIIGRGGEQNSRIQAESGCKIQIASESSGIPERPCVLTGTPESIEQAKRLLGQIVDRCRN, for which the abundance fitness is -0.538 ± 0.08.
In the case of RTVITEEFKVPDKMVGFIIGRGGEQGSRIQAESGCKIQIASESSGIPERPCVLTGTPESIEQAKRLLGQIVDRCRN, the abundance fitness is -0.533 ± 0.029.
For RTVITEEFKVPDKMVGFIIGRGGEQQSRIQAESGCKIQIASESSGIPERPCVLTGTPESIEQAKRLLGQIVDRCRN the value was -0.193 ± 0.039; for RTVITEEFKVPDKMVGFIIGRGGEQDSRIQAESGCKIQIASESSGIPERPCVLTGTPESIEQAKRLLGQIVDRCRN, -0.518 ± 0.052.
As to RTVITEEFKVPDKMVGFIIGRGGEQESRIQAESGCKIQIASESSGIPERPCVLTGTPESIEQAKRLLGQIVDRCRN, the abundance fitness was -0.436 ± 0.037.
For RTVITEEFKVPDKMVGFIIGRGGEQSSRIQAESGCKIQIASESSGIPERPCVLTGTPESIEQAKRLLGQIVDRCRN the value was -0.436 ± 0.035; for RTVITEEFKVPDKMVGFIIGRGGEQRSRIQAESGCKIQIASESSGIPERPCVLTGTPESIEQAKRLLGQIVDRCRN, -0.251 ± 0.027; for RTVITEEFKVPDKMVGFIIGRGGEQKSRIQAESGCKIQIASESSGIPERPCVLTGTPESIEQAKRLLGQIVDRCRN, -0.232 ± 0.041.
For RTVITEEFKVPDKMVGFIIGRGGEQYSRIQAESGCKIQIASESSGIPERPCVLTGTPESIEQAKRLLGQIVDRCRN the value was -0.288 ± 0.062.
For RTVITEEFKVPDKMVGFIIGRGGEQASRIQAESGCKIQIASESSGIPERPCVLTGTPESIEQAKRLLGQIVDRCRN the value was -0.192 ± 0.034; for RTVITEEFKVPDKMVGFIIGRGGEQLSRIQAESGCKIQIASESSGIPERPCVLTGTPESIEQAKRLLGQIVDRCRN, -0.019 ± 0.032; for RTVITEEFKVPDKMVGFIIGRGGENISRIQAESGCKIQIASESSGIPERPCVLTGTPESIEQAKRLLGQIVDRCRN, -0.041 ± 0.072.
On to RTVITEEFKVPDKMVGFIIGRGGEVISRIQAESGCKIQIASESSGIPERPCVLTGTPESIEQAKRLLGQIVDRCRN, for which the abundance fitness was -0.08 ± 0.032.
Then RTVITEEFKVPDKMVGFIIGRGGESISRIQAESGCKIQIASESSGIPERPCVLTGTPESIEQAKRLLGQIVDRCRN, with -0.026 ± 0.034.
On to RTVITEEFKVPDKMVGFIIGRGGEPISRIQAESGCKIQIASESSGIPERPCVLTGTPESIEQAKRLLGQIVDRCRN, for which the abundance fitness is -0.163 ± 0.041.
For RTVITEEFKVPDKMVGFIIGRGGELISRIQAESGCKIQIASESSGIPERPCVLTGTPESIEQAKRLLGQIVDRCRN the value was -0.138 ± 0.033.
For RTVITEEFKVPDKMVGFIIGRGGERISRIQAESGCKIQIASESSGIPERPCVLTGTPESIEQAKRLLGQIVDRCRN the value was 0.023 ± 0.026.
Then RTVITEEFKVPDKMVGFIIGRGGEEISRIQAESGCKIQIASESSGIPERPCVLTGTPESIEQAKRLLGQIVDRCRN, with -0.024 ± 0.036; and RTVITEEFKVPDKMVGFIIGRGGETISRIQAESGCKIQIASESSGIPERPCVLTGTPESIEQAKRLLGQIVDRCRN, with -0.133 ± 0.044.
RTVITEEFKVPDKMVGFIIGRGGEWISRIQAESGCKIQIASESSGIPERPCVLTGTPESIEQAKRLLGQIVDRCRN: the abundance fitness is -0.213 ± 0.033.
Then RTVITEEFKVPDKMVGFIIGRGGEYISRIQAESGCKIQIASESSGIPERPCVLTGTPESIEQAKRLLGQIVDRCRN, with -0.197 ± 0.06.
With RTVITEEFKVPDKMVGFIIGRGGEKISRIQAESGCKIQIASESSGIPERPCVLTGTPESIEQAKRLLGQIVDRCRN, the abundance fitness is -0.037 ± 0.047.
Then RTVITEEFKVPDKMVGFIIGRGGEFISRIQAESGCKIQIASESSGIPERPCVLTGTPESIEQAKRLLGQIVDRCRN, with -0.105 ± 0.082.
As to RTVITEEFKVPDKMVGFIIGRGGEIISRIQAESGCKIQIASESSGIPERPCVLTGTPESIEQAKRLLGQIVDRCRN, the abundance fitness was -0.112 ± 0.069.
Then RTVITEEFKVPDKMVGFIIGRGGEMISRIQAESGCKIQIASESSGIPERPCVLTGTPESIEQAKRLLGQIVDRCRN, with -0.036 ± 0.046; and RTVITEEFKVPDKMVGFIIGRGGEGISRIQAESGCKIQIASESSGIPERPCVLTGTPESIEQAKRLLGQIVDRCRN, with -0.058 ± 0.026; and RTVITEEFKVPDKMVGFIIGRGGEHISRIQAESGCKIQIASESSGIPERPCVLTGTPESIEQAKRLLGQIVDRCRN, with -0.077 ± 0.057.
For RTVITEEFKVPDKMVGFIIGRGGEQISYIQAESGCKIQIASESSGIPERPCVLTGTPESIEQAKRLLGQIVDRCRN the value was -0.173 ± 0.061.
For RTVITEEFKVPDKMVGFIIGRGGEQISMIQAESGCKIQIASESSGIPERPCVLTGTPESIEQAKRLLGQIVDRCRN the value was -0.104 ± 0.046.
For the variant RTVITEEFKVPDKMVGFIIGRGGEQISAIQAESGCKIQIASESSGIPERPCVLTGTPESIEQAKRLLGQIVDRCRN, the abundance fitness was -0.024 ± 0.029.
Then RTVITEEFKVPDKMVGFIIGRGGEQISLIQAESGCKIQIASESSGIPERPCVLTGTPESIEQAKRLLGQIVDRCRN, with -0.143 ± 0.033; and RTVITEEFKVPDKMVGFIIGRGGEQISQIQAESGCKIQIASESSGIPERPCVLTGTPESIEQAKRLLGQIVDRCRN, with -0.02 ± 0.04.
Then RTVITEEFKVPDKMVGFIIGRGGEQISEIQAESGCKIQIASESSGIPERPCVLTGTPESIEQAKRLLGQIVDRCRN, with -0.079 ± 0.034; and RTVITEEFKVPDKMVGFIIGRGGEQISSIQAESGCKIQIASESSGIPERPCVLTGTPESIEQAKRLLGQIVDRCRN, with -0.085 ± 0.035.
For RTVITEEFKVPDKMVGFIIGRGGEQISWIQAESGCKIQIASESSGIPERPCVLTGTPESIEQAKRLLGQIVDRCRN the value was -0.118 ± 0.034; for RTVITEEFKVPDKMVGFIIGRGGEQISVIQAESGCKIQIASESSGIPERPCVLTGTPESIEQAKRLLGQIVDRCRN, -0.202 ± 0.028; for RTVITEEFKVPDKMVGFIIGRGGEQISHIQAESGCKIQIASESSGIPERPCVLTGTPESIEQAKRLLGQIVDRCRN, -0.108 ± 0.064.
On to RTVITEEFKVPDKMVGFIIGRGGEQISDIQAESGCKIQIASESSGIPERPCVLTGTPESIEQAKRLLGQIVDRCRN, for which the abundance fitness is -0.077 ± 0.053.
In the case of RTVITEEFKVPDKMVGFIIGRGGEQISPIQAESGCKIQIASESSGIPERPCVLTGTPESIEQAKRLLGQIVDRCRN, the abundance fitness was -0.617 ± 0.052.
For RTVITEEFKVPDKMVGFIIGRGGEQISNIQAESGCKIQIASESSGIPERPCVLTGTPESIEQAKRLLGQIVDRCRN the value was -0.125 ± 0.069.
As for RTVITEEFKVPDKMVGFIIGRGGEQISFIQAESGCKIQIASESSGIPERPCVLTGTPESIEQAKRLLGQIVDRCRN, the abundance fitness was -0.218 ± 0.067.
For RTVITEEFKVPDKMVGFIIGRGGEQISCIQAESGCKIQIASESSGIPERPCVLTGTPESIEQAKRLLGQIVDRCRN the value was -0.172 ± 0.047; for RTVITEEFKVPDKMVGFIIGRGGEQISTIQAESGCKIQIASESSGIPERPCVLTGTPESIEQAKRLLGQIVDRCRN, -0.064 ± 0.039.

The record behind these values is the Human Domainome abundance scans (Beltran et al. 2025).
